Laboratory results taken from patent US20200392227A1 (LYVGEN BIOPHARMA, published 2020).
Numbering of substitutions follows the chain as printed. Where two headings read alike, the source gives them in different places. One block for each binder: values may come before it.

Tests used:
Assay in all cases: BLI
[1] = target: T1, human FcRIIA protein (MednaBio, E1033) (human, UniProt P12318 34-218, limits assumed)
T1 construct: Bought; also called FcγRIIA
T1 sequence (looked up): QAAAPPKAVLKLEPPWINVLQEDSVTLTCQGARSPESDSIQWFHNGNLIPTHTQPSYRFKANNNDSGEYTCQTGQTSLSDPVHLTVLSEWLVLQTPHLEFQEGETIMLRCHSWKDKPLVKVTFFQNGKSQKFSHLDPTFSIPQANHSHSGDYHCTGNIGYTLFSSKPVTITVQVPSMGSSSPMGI
Procedure, shortened: (§1)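 Binding was measured by biolayer interferometry on an Octet Red96 System, with commercial human Fc receptor proteins loaded at 20 μg/mL onto anti-penta-HIS biosensors. Sensors were dipped into an 8-point 1:3 dilution series of test IgG starting at 300 nM in PBS with 0.1% BSA and 0.02% Tween-20. Fcγ receptor assays ran at pH 7.2 and FcRn assays at pH 6. Kd, kon and koff came from global fitting to a 1:1 binding model.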

[2] = target: T2, human FcRn protein (MednaBio, E1032) (human, UniProt P55899 24-297; P61769 21-119)
T2 construct: Bought; assays at pH 6
Procedure, shortened: as §1

[3] = target: T1, human FcRIIA protein (MednaBio, E1033); remark: listed apart in the source
Description: (§2) These IgG mutants were tested for binding to a panel of human Fc receptors (FcRs), including FcRn, using the Octet Red96 System (ForteBio, Model #Red96). Human FcR proteins were purchased commercially (FcRn, MednaBio, E1032; FcRI, MednaBio, E1031; FcRIIA, MednaBio, E1033; FcRIIB/C, MednaBio, E1034; FcRIIIA-F158, MednaBio, E1036; FcRIIIA-V158, MednaBio, E1035; FcRIIIB, MednaBio, E1037). All Fey receptor assays were performed at pH 7.2; all FcRn assays were performed at pH 6. The Fey receptors were loaded onto anti-penta-HIS1K (ForteBio, Cat #18-5122) biosensors at a concentration of 20 μg/mL. The loaded biosensors was then be dipped into an 8-point 1:3 dilution series of the test IgG molecules (including controls and the mutants described herein) in PBS with 0.1% BSA, 0.02% Tween-20 (pH 7.2) at a starting concentration of 300 nM. Kinetic analysis was performed using a 1:1 binding model and global fitting.

[4] = target: T2, human FcRn protein (MednaBio, E1032); remark: listed apart in the source
Description: as §2

[5] = target: T1, human FcRIIA protein (MednaBio, E1033); remark: listed apart in the source
Procedure, shortened: as §1

[6] = target: T2, human FcRn protein (MednaBio, E1032); remark: listed apart in the source
Procedure, shortened: as §1

[7] = target: T1, human FcRIIA protein (MednaBio, E1033); remark: listed apart in the source
Procedure, shortened: as §1

[8] = target: T2, human FcRn protein (MednaBio, E1032); remark: listed apart in the source
Procedure, shortened: as §1

[9] = target: T1, human FcRIIA protein (MednaBio, E1033); remark: listed apart in the source
Procedure, shortened: as §1

[10] = target: T2, human FcRn protein (MednaBio, E1032); remark: listed apart in the source
Procedure, shortened: as §1

[11] = target: T1, human FcRIIA protein (MednaBio, E1033); remark: listed apart in the source
Description: as §2

[12] = target: T2, human FcRn protein (MednaBio, E1032); remark: listed apart in the source
Description: as §2

[13] = target: T3, human FcRI protein (MednaBio, E1031) (human, UniProt P12314 16-288, limits assumed)
T3 construct: Bought; loaded on anti-penta-HIS biosensors; also called FcγRI
Procedure, shortened: as §1

[14] = target: T1, human FcRIIA protein (MednaBio, E1033); remark: listed apart in the source
Procedure, shortened: as §1

[15] = target: T2, human FcRn protein (MednaBio, E1032); remark: listed apart in the source
Procedure, shortened: as §1

[16] = target: T4, human FcRIIB/C protein (MednaBio, E1034) (human, UniProt P31994 43-217, limits assumed)
T4 construct: Bought as FcRIIB/C; also called FcγRIIB; CD32B
T4 sequence (looked up): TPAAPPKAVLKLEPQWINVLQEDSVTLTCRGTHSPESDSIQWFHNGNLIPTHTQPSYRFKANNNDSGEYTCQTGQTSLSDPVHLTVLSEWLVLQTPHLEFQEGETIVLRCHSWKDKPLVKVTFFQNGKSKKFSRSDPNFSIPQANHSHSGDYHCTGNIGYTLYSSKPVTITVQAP
Procedure, shortened: as §1

[17] = target: T5, human FcRIIIB protein (MednaBio, E1037) (human, UniProt O75015 17-200)
T5 construct: Bought; also called FcγRIIIB; FcgRIIIB
Procedure, shortened: as §1

[18] = target: T6, human FcRIIIA-V158 protein (MednaBio, E1035) (human, UniProt P08637 17-208)
T6 construct: Bought; also called FcγRIIIA(V); FcgRIIIA(V)
Procedure, shortened: as §1

[19] = target: T3, human FcRI protein (MednaBio, E1031); remark: listed apart in the source
Procedure, shortened: as §1

[20] = target: T7, human FcRIIIA-F158 protein (MednaBio, E1036) (human, UniProt P08637 17-208)
T7 construct: Bought; also called FcγRIIIA(F)
Procedure, shortened: as §1

[21] = target: T4, human FcRIIB/C protein (MednaBio, E1034); remark: listed apart in the source
Procedure, shortened: as §1

T7 sequence (P08637 17-208 limits assumed): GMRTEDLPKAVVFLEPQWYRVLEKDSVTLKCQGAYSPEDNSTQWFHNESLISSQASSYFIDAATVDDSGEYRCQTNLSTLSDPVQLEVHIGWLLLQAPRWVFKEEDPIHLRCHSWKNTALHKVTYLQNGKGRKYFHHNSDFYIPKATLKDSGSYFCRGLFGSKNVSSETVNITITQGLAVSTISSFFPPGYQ
T6 sequence (P08637 17-208 F176V): as the sequence (P08637 17-208 limits assumed) above, with F160V counted along it
T3 sequence (P12314 16-288 limits assumed): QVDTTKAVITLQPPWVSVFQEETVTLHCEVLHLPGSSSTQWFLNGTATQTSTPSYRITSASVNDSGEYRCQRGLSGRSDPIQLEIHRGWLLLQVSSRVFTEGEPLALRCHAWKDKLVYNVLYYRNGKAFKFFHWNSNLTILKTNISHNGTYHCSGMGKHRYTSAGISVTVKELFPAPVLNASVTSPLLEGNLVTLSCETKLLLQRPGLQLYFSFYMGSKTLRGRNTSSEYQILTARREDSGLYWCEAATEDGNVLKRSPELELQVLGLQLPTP
T5 sequence (O75015 17-200 limits assumed): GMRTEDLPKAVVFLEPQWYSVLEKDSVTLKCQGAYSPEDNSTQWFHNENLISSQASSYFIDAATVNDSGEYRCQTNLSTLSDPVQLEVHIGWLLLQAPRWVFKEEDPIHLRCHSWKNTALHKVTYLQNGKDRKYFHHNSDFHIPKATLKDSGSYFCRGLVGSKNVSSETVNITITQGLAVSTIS

Kd [1]: 89 nM | koff [1]: 0.039 s⁻¹ | kon [1]: 440000 M⁻¹ s⁻¹ | Kd [2]: 10 nM | koff [2]: 0.0099 s⁻¹ | kon [2]: 990000 M⁻¹ s⁻¹ | Kd [3]: 89 nM | koff [3]: 0.039 s⁻¹ | kon [3]: 440000 M⁻¹ s⁻¹ | Kd [4]: 10 nM | koff [4]: 0.0099 s⁻¹ | kon [4]: 990000 M⁻¹ s⁻¹ | Kd [5]: 89 nM | koff [5]: 0.039 s⁻¹ | kon [5]: 440000 M⁻¹ s⁻¹ | Kd [6]: 10 nM | koff [6]: 0.0099 s⁻¹ | kon [6]: 990000 M⁻¹ s⁻¹ | Kd [7]: 89 nM | koff [7]: 0.039 s⁻¹ | kon [7]: 440000 M⁻¹ s⁻¹ | Kd [8]: 10 nM | koff [8]: 0.0099 s⁻¹ | kon [8]: 990000 M⁻¹ s⁻¹ | Kd [9]: 89 nM | koff [9]: 0.039 s⁻¹ | kon [9]: 440000 M⁻¹ s⁻¹ | Kd [10]: 10 nM | koff [10]: 0.0099 s⁻¹ | kon [10]: 990000 M⁻¹ s⁻¹ | Kd [11]: 89 nM | koff [11]: 0.039 s⁻¹ | kon [11]: 440000 M⁻¹ s⁻¹ | Kd [12]: 10 nM | koff [12]: 0.0099 s⁻¹ | kon [12]: 990000 M⁻¹ s⁻¹
B1: wild-type human IgG2 control (antibody)
heavy: EVQLVQSGAEVKKPGESLRISCKGSGYSFSTYWISWVRQMPGKGLEWMGKIYPGDSYTNYSPSFQGQVTISADKSISTAYLQWSSLKASDTAMYYCARGYGIFDYWGQGTLVTVSSASTKGPSVFPLAPCSRSTSESTAALGCLVKDYFPEPVTVSWNSGALTSGVHTFPAVLQSSGLYSLSSVVTVPSSNFGTQTYTCNVDHKPSNTKVDKTVERKCCVECPPCPAPPVAGPSVFLFPPKPKDTLMISRTPEVTCVVVDVSHEDPEVQFNWYVDGVEVHNAKTKPREEQFNSTFRVVSVLTVVHQDWLNGKEYKCKVSNKGLPAPIEKTISKTKGQPREPQVYTLPPSREEMTKNQVSLTCLVKGFYPSDIAVEWESNGQPENNYKTTPPMLDSDGSFFLYSKLTVDKSRWQQGNVFSCSVMHEALHNHYTQKSLSLSPGK
light: SYELTQPPSVSVSPGQTASITCSGDNIGDQYAHWYQQKPGQSPVLVIYQDKNRPSGIPERFSGSNSGNTATLTISGTQAMDEADYYCATYTGFGSLAVFGGGTKLTVLGQPKAAPSVTLFPPSSEELQANKATLVCLISDFYPGAVTVAWKADSSPVKAGVETTTPSKQSNNKYAASSYLSLTPEQWKSHRSYSCQVTHEGSTVEKTVAPTECS
notes: Control IgG

Kd [13]: 46 nM | koff [13]: 0.017 s⁻¹ | kon [13]: 380000 M⁻¹ s⁻¹ | Kd [14]: 660 nM | koff [14]: 0.038 s⁻¹ | kon [14]: 57000 M⁻¹ s⁻¹ | Kd [15]: 19 nM | koff [15]: 0.009 s⁻¹ | kon [15]: 480000 M⁻¹ s⁻¹ | Kd [16]: 240 nM | koff [16]: 0.03 s⁻¹ | kon [16]: 130000 M⁻¹ s⁻¹
B2: anti-CD137 IgG4 with Fc variant G4m25 (antibody)
heavy: EVQLVQSGAEVKKPGESLRISCKGSGYSFSTYWISWVRQMPGKGLEWMGKIYPGDSYTNYSPSFQGQVTISADKSISTAYLQWSSLKASDTAMYYCARGYGIFDYWGQGTLVTVSSASTKGPSVFPLAPCSRSTSESTAALGCLVKDYFPEPVTVSWNSGALTSGVHTFPAVLQSSGLYSLSSVVTVPSSSLGTKTYTCNVDHKPSNTKVDKRVESKYGPPCPPCPAPEFLGPSVFLFPPKPKDTLMISRTPEVTCVVVDVSQEDPEEQFNWYVDGVEVHNAKTKPREEQFNSTYRVVSVLTVLHQDWLNGKEYKCKVSNKGLPSSIEKTISKAKGQPREPQVYTLPPSQEEMTKNQVSLTCLVKGFYPSDIAVEWESNGQPENNYKTTPPVLDSDGSFFLYSRLTVDKSRWQEGNVFSCSVMHEALHNHYTQKSLSLSLGK
light: B1 light
notes: copies: 2 + 2

Kd [17]: 132 nM | koff [17]: 0.0579 s⁻¹ | kon [17]: 437000 M⁻¹ s⁻¹ | Kd [18]: 202 nM | koff [18]: 0.0596 s⁻¹ | kon [18]: 296000 M⁻¹ s⁻¹ | Kd [19]: 605 nM | koff [19]: 0.0617 s⁻¹ | kon [19]: 102000 M⁻¹ s⁻¹ | Kd [20]: 145 nM | koff [20]: 0.0678 s⁻¹ | kon [20]: 468000 M⁻¹ s⁻¹ | Kd [7]: 54.5 nM | koff [7]: 0.0256 s⁻¹ | kon [7]: 469000 M⁻¹ s⁻¹ | Kd [8]: 21.9 nM | koff [8]: 0.0152 s⁻¹ | kon [8]: 698000 M⁻¹ s⁻¹ | Kd [21]: 30.7 nM | koff [21]: 0.0123 s⁻¹ | kon [21]: 401000 M⁻¹ s⁻¹
B3: anti-CD137 IgG4 with Fc variant G4mPE (antibody)
heavy: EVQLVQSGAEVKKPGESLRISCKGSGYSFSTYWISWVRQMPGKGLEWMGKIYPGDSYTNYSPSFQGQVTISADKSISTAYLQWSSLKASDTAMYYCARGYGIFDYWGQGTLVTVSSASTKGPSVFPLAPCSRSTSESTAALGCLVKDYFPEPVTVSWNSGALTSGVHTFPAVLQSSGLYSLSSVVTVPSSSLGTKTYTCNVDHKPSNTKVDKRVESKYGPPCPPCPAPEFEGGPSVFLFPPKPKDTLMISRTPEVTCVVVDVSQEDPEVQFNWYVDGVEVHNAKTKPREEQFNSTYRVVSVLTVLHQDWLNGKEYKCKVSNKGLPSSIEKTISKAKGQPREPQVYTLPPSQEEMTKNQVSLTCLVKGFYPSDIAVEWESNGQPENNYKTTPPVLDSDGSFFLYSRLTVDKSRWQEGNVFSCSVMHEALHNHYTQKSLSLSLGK
light: B1 light
notes: also called G4PE; copies: 2 + 2

Kd [15]: 13 nM | koff [15]: 0.009 s⁻¹ | kon [15]: 690000 M⁻¹ s⁻¹
B4: anti-CD137 IgG4 with Fc variant G4m19 (antibody)
heavy: EVQLVQSGAEVKKPGESLRISCKGSGYSFSTYWISWVRQMPGKGLEWMGKIYPGDSYTNYSPSFQGQVTISADKSISTAYLQWSSLKASDTAMYYCARGYGIFDYWGQGTLVTVSSASTKGPSVFPLAPCSRSTSESTAALGCLVKDYFPEPVTVSWNSGALTSGVHTFPAVLQSSGLYSLSSVVTVPSSSLGTKTYTCNVDHKPSNTKVDKRVESKYGPPCPPCPAPEFLSVFLFPPKPKDTLMISRTPEVTCVVVDVEQEDPEVQFNWYVDGVEVHNAKTKPREEQFNSTYRVVSVLTVLHQDWLNGKEYKCKVSNKGFPSSIEKTISKAKGQPREPQVYTLPPSQEEMTKNQVSLTCLVKGFYPSDIAVEWESNGQPENNYKTTPPVLDSDGSFFLYSRLTVDKSRWQEGNVFSCSVMHEALHNHYTQKSLSLSLGK
light: B1 light
notes: copies: 2 + 2

binding result [17]: no binding (tested: 300 nM) | binding result [18]: no binding (tested: 300 nM) | Kd [19]: 3.8 nM | koff [19]: 0.0028 s⁻¹ | kon [19]: 720000 M⁻¹ s⁻¹ | binding result [20]: no binding (tested: 300 nM) | Kd [7]: 260 nM | koff [7]: 0.1 s⁻¹ | kon [7]: 390000 M⁻¹ s⁻¹ | Kd [8]: 20 nM | koff [8]: 0.012 s⁻¹ | kon [8]: 610000 M⁻¹ s⁻¹ | Kd [21]: 89 nM | koff [21]: 0.048 s⁻¹ | kon [21]: 530000 M⁻¹ s⁻¹
B5: anti-CD137 IgG4 with Fc variant G4m8 (antibody)
heavy: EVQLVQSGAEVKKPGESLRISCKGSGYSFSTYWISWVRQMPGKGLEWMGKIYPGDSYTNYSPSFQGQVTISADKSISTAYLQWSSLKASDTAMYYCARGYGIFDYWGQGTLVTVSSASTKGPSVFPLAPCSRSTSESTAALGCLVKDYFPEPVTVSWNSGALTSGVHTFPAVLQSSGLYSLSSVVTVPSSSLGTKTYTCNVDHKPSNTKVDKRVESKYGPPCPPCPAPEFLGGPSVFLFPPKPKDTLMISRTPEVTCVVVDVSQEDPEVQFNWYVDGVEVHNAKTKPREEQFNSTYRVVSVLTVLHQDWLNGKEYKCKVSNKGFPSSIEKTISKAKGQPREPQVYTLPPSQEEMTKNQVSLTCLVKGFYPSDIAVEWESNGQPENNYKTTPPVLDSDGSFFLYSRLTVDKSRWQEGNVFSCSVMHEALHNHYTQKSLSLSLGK
light: B1 light
notes: copies: 2 + 2

Kd [13]: 66 nM | koff [13]: 0.025 s⁻¹ | kon [13]: 370000 M⁻¹ s⁻¹ | Kd [15]: 23 nM | koff [15]: 0.01 s⁻¹ | kon [15]: 450000 M⁻¹ s⁻¹ | Kd [16]: 310 nM | koff [16]: 0.039 s⁻¹ | kon [16]: 130000 M⁻¹ s⁻¹
B6: anti-CD137 IgG4 with Fc variant G4m27 (antibody)
heavy: B2 heavy with S262E, E268V
light: B1 light
notes: copies: 2 + 2
